Test results reported in US20260234252A1 (published 2026).
Where “and” joins values, the source holds several entries; their conditions need not be identical. Equal entries are not always repeated. Where two headings read alike, the source gives them in different places.

T1: Vβ17 on human CD8+ T cells (human)
T1 chain: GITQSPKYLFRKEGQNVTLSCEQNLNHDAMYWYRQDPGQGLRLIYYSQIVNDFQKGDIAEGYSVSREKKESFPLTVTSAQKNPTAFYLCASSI

B1: VB13 (Vβ17×Null) bispecific antibody (bispecific antibody)
heavy 1: QVQLQESGPGLVKPSETLSLTCTVSGYSITSGYFWNWIRQPPGKGLEWIGYISYDGSNNYNPSLKSRVTISRDTSKNQFSLKLSSVTAADTAVYYCASPSPGTGYAVDYWGQGTLVTVSSASTKGPSVFPLAPCSRSTSESTAALGCLVKDYFPEPVTVSWNSGALTSGVHTFPAVLQSSGLYSLSSVVTVPSSSLGTKTYTCNVDHKPSNTKVDKRVESKYGPPCPPCPAPEAAGGPSVFLFPPKPKDTLMISRTPEVTCVVVDVSQEDPEVQFNWYVDGVEVHNAKTKPREEQFNSTYRVVSVLTVLHQDWLNGKEYKCKVSNKGLPSSIEKTISKAKGQPREPQVYTLPPSQEEMTKNQVSLSCAVKGFYPSDIAVEWESNGQPENNYKTTPPVLDSDGSFFLVSRLTVDKSRWQEGNVFSCSVMHEALHNRFTQKSLSLSLGK
light 1: DIQMTQSPSSLSASVGDRVTITCRSSQSLVHSNGNTYLHWYQQKPGKAPKFLIYKVSNRFSGVPSRFSGSGSGTDFTLTISSLQPEDFATYYCSQSTHVPFTFGQGTKLEIKRTVAAPSVFIFPPSDEQLKSGTASVVCLLNNFYPREAKVQWKVDNALQSGNSQESVTEQDSKDSTYSLSSTLTLSKADYEKHKVYACEVTHQGLSSPVTKSFNRGEC
heavy 2: not shown
light 2: not shown
B2: VB11 (anti-Vβ17/anti-CD123) bispecific antibody (bispecific antibody)
heavy 1: B1 heavy 1
light 1: B1 light 1
heavy 2: EVQLVQSGAEVKKPGESLKISCKGSGYSFTSYWISWVRQMPGKGLEWMGIIDPSDSDTRYSPSFQGQVTISADKSISTAYLQWSSLKASDTAMYYCARGDGSTDLDYWGQGTLVTVSSASTKGPSVFPLAPCSRSTSESTAALGCLVKDYFPEPVTVSWNSGALTSGVHTFPAVLQSSGLYSLSSVVTVPSSSLGTKTYTCNVDHKPSNTKVDKRVESKYGPPCPPCPAPEAAGGPSVFLFPPKPKDTLMISRTPEVTCVVVDVSQEDPEVQFNWYVDGVEVHNAKTKPREEQFNSTYRVVSVLTVLHQDWLNGKEYKCKVSNKGLPSSIEKTISKAKGQPREPQVYTLPPSQEEMTKNQVSLWCLVKGFYPSDIAVEWESNGQPENNYKTTPPVLDSDGSFFLYSRLTVDKSRWQEGNVFSCSVMHEALHNHYTQKSLSLSLGK
light 2: EIVLTQSPGTLSLSPGERATLSCRASQSVSSSYLAWYQQKPGQAPRLLIYGASSRATGIPDRFSGSGSGTDFTLTISRLEPEDFAVYYCQQDYGFPWTFGQGTKVEIKRTVAAPSVFIFPPSDEQLKSGTASVVCLLNNFYPREAKVQWKVDNALQSGNSQESVTEQDSKDSTYSLSSTLTLSKADYEKHKVYACEVTHQGLSSPVTKSFNRGEC

Tests used:
[1] = molecular target: T1, Vβ17 on human CD8+ T cells; experiment: FACS
[2] = molecular target: T1, Vβ17 on human CD8+ T cells; experiment: FACS

| Binder | EC50 [1] [nM] | EC50 [2] |
| --- | --- | --- |
| B1 | 12.6 | 1.4 nM and 1.5 nM |
| B2 |  | 0.8 nM and 1.26 nM |
